Test: soluble on expression in E. coli; label from the status in PepcDB or PDB records

| Sequence | soluble on expression in E. coli |
| --- | --- |
| MMFGRFTERAQKVLALSQEEAIRIGHNNIGTEHILLGLVREGEGIAAKALIALGLSPEKVQKEVEALIGRGTEASQTVHYTPRAKKVIELSMDEARKLGHSYVGTEHILLGLIREGEGVAARVLNNLGVSLNKARQQVLQLLGSNEASSGHQGGSSTNANTPTLDSLARDLTVVARENRLDPVIGRGKEIQRVIEVLSRRTKNNPVLIGEPGVGKTAIAEGLAQQIVNNEVPETLRDKRVMTLDMGTVVAGTKYRGEFEDRLKKVMDEIRQAGNIILFIDELHTLIGAGGAEGAIDASNILKPSLARGELQCIGATTLDEYRKYIEKDAALERRFQPIHVDEPSLDESTQILKGLRDRYEAHHRVSITDDAIDAAVKLSDRYITDRFLPDKAIDLIDEAASKVRLRSYTTPPNLKELEVKLEEIRKEKDAAVQSQEFEKAASLRDMEQRLREKLEDTKRQWKEQQGKENSEVTVEDIANVVSTWTRIPVSKLAQTETDKLLNLESILHDRVIGQDEAVVAVAKAVRRARAGLKDPKRPIGSFIFLGPTGVGKTELARALAESMFGDEDAMIRIDMSEYMEKHSTSRLVGSPPGYVGYEEGGQLTEKVRRKPYSVVLLDEVEKAHPDVFNILLQVLEDGRLTDSKGRTVDFRNTIVIMTSNVGAEALKRNKHLGFNVQDESRDYSDMKGKVMDELKKAFRPEFLNRIDEIIVFHMLEKKHIQEIVTLMVNQLVNRLKEQEIELHLTEGAISAIADKGFDREYGARPLRRAIQKHVEDRLSEELLKGAIEKGQKVIFDVEGESFVIHSAEKVK | soluble |
| MMFNFYQFLYNLQNVSPFIDFSVLKQLTHTKMRENEPARFETRSFSQLIDHARSWKTEVRGMTTQGFTKISLMRAEKDRLNMYAISSVPGTNTQSIFSVTIPLELVEKAQVADRKFELKLKSGYNVDSYIRKTPPSAEFTLQCERQRSQVVTGISDYEIRNGKMILMAGDQLFRYNPLNEALAAIPIAVPDDQSSTEPMDISEGSITSGTKGCSNEAPQSSTVPPVTRIPIKKPTTSTEKPATAPPTNNFVSSAKVCPADSSLLAYVLNKQVYIEKNGKIIHRTSSNSKHITNGVPSYIVQEELERFEGIWWSESKTRLLYEHVNEEKVAESQFGVNGDPPVAPMKYPRAGTKNAYSTLRMVILENGKAYDVPLKDEVIYKHCPFYEYITRAGFFSDGTTVWVQVMSRDQAQCSLLLIPYTDFLLPEELGGSIKEDNLQLSTDLNMGVWDDKSHEETMEKPPRGKLRGTVQIHKARNDYWINTHNAIYPLKITDEEHPMYEFIYCLEKPNGSCLALISAELDQNGYCRHTEEKLLMAENFSINKSMGIVVDEVRELVYYVANESHPTEWNICVSHYRTGQHAQLTESGICFKSERANGKLALDLDHGFACYMTSVGSPAECRFYSFRWKENEVLPSTVYAANITVSGHPGQPDLHFDSPEMIEFQSKKTGLMHYAMILRPSNFDPYKKYPVFHYVYGGPGIQIVHNDFSWIQYIRFCRLGYVVVFIDNRGSAHRGIEFERHIHKKMGTVEVEDQVEGLQMLAERTGGFMDMSRVVVHGWSYGGYMALQMIAKHPNIYRAAIAGGAVSDWRLYDTAYTERYMGYPLEEHVYGASSITGLVEKLPDEPNRLMLVHGLMDENVHFAHLTHLVDECIKKGKWHELVIFPNERHGVRNNDASIYLDARMMYFAQQAIQGFGPTTAAPRQGPL | not soluble |
| MMFNNNNWKLSVTDINLYENTVSLDGQPYPLSLAIKTLIPGYLSGLPSTSREAMELLEALAEAGVTIGNFFSNDLMTAYGRRQMNKRAEAERIAKEQRLQAERMREENMTDAEWQKELQRREQVKAERRTYGESLRSATHSAGRSRAAIVADLESGGNWMDSL | not soluble |
| MMGFEKVEHLLPDTVLDIVDVIGLAATEQLVKAIGGARFKFGKGKVDTERLAILVEAIGEVKTHELLQVYGGEELYVPRCGKALIQLRNHRFYQEFVKLRDIDKKSGLMAMTKLCPKYGISSRTGYTIINEMSRPAAQQAALF | not soluble |
| MMINFEAIIGIEVHVVLNTATKMFSPAPNQAQNATPNQFINAIDLGLPGTMPQVNEQAVQKALILADALNMQRVQPVLVFDRKHYFYQDLPKGFQITQQNFPIAQNGYVEIVENNKAQRIIIERFHLEEDTAKQHFVDGQILLDFNRCGAPLIEVVTAPVIKSAKQSKAYLQKLRQILIVNNISNAKLEDGSMRSDCNVSVRLKGQTAFGTKVEIKNINSLNNVEKAIDLEIARQVKALIKGEPVQQVTLTYDDKTNTNVFMRKKDNSVDYRYFIEPNIMSSNIDELLQKPNKAFNLTEFFTKLKEAGVNEQLNQLVVDDLTLFNAYTKINSVINSPQDTIRWLCIELMGQLNKLQKPLKDKTIDHLIILIQMVQKGTVNQKQAKQLIELMLDNGQDPQSLAKLHNLEQITDEKQLTQIIQQIFKENEGEILKNLDRVERIQKLIIGQVMQRTHNRANPQQVFIIVEKLLHDFSERAS | not soluble |
| MMINRINLTDIRSFVLIARLGNFTKAAETLDVSRSHVSRQISSLEKQMGVTLLIRTTRTLRLTEAGKHFYHQCEQALHTIDQALLSAVDDVEKVQGEIKINCVGGYLGEVFLADIVNTFMQQYPDVSISLDFSSNRVDLIEEEFDIAFRMGSLEDSGFVAKKLLDIEMGTLASPKYLQQYGRPSHPKELQQHHCLTGSVRKWHFQSLVNKEHYDVSIKGNLQCKNGRVLVAGAIAGNGIIRVPLIYCQQELDDKKLVQVFEEWGIPTVDFSAIYHRDRYQPKRIRTFIDFVKQYSDSLFT | not soluble |
| MMISLYSAATGMSAQQFKLDTIANNLANVDTTGYKKVRAEFQDLLYQYVKNAGTPTAATSSLPTGLYVGHGVRTAATTRIFTLGNFEQTGNALDLAIAGDGFFQIQLQDGRIAYTRDGSFKMDSEGRIVTSNGLLLVPEITIPENAVSINVSPDGIVSAELQDGTIQELGTITLVRFVNPSGLKSIGDNLYIATPASGDPIEGVPGQDGFGAIKQGFLEKSNVDVVREMVDMITAQRAYEFNSRVIQTADEMLRTATNVKR | soluble |
| MMIVGCYCMNKLVFCLMGPTASGKTGLACELLTHFPFEIISVDSAMIYRDMNIGTAKPSIHELQRAPHYLIDIKDPVESYSAAQFCTDALSLCAEIIKRGNIPLLVGGTMMYFNALQKGLATLPEADEAVRKRLEEEALSQGWDFLYQKLSQLDPVTAARIHAHDTQRIQRALEVYYLTGSTLSTYLTGPHERPDYYFVNLALFPEQRSWLHERIAQRFDAMLSEGFIEEVQQLQAKWPIQINLPSMRCVGYRQILQHLAGHYDYETMREKGIAATRQLAKRQLTWLRHWEGALFYDSQNVGFNTDIIAKIREILDNTVSNLEHHHHHH | not soluble |
| MMKDAVVITVGNEVLKGRTVNTNASFIGNFLTYQGYRVKLGLTVMDDLEDISWAFKTAMDRGDVIVSSGGLGPTFDDMTVEGFAKAIGSDNKLNQDALAMIEEKYKNIEITPERKKMAMMPEVCKPIRNPVGTAPGLLCSVGGKKVVILPGVPMEMQALLESMRDSLAIENSCYFDESINITGIMESTFAPYVERVMREVDGVYVKSHPKNIEVVNPSLEIEVSAYDVSQEAARKKVKDAIARIRAYAETILDSKDK | not soluble |
| MMKFDNSYAHLPERFSAAVLPTPVKAPRLIAFNRTLAEELLLDVADLDDDRLAAIFSGNVVPQGAEPLAMAYAGHQFGGFVPQLGDGRAILLGEVIDVNGRRRDIQLKGSGPTPFSRRGDGRAALGPVLREYIVSEAMFALGIPATRALAAVLSGDRVQREVGLPGGVFTRVAASHIRVGTFQFFAAREDDEAIRSLADYVIDRHYPDAKNTENPYLALLRGIAERQCALIARWMMVGFIHGVMNTDNMAVSGETIDFGPCAFLDEYHPNKVFSSIDAQGRYAYNNQPGIAQWNIARLAECLLPLLDPEVEKAAELANAVLADFAAAFPQRWLTGMREKLGLTTEEEGDMDLIQSLLSLMQASEADFTLTFRRLSHAANGDAEPFRGMFIDIAGADAFLTRWRERAGREGISDSERSAAMLSINPAIIPRNHRIEELIEAAVEDGDFEPFHAMLTAIATPFEERPDNFVYMQPPMSHERVFRTFCGTLEHHHHHH | soluble |
| MMKFKKCLLPVAMLASFTLAGCQSNADDHAADVYQTDQLNTKQETKTVNIISILPAKVAVDNSQNKRNAQAFGALIGAVAGGVIGHNVGSGSNSGTTAGAVGGGAVGAAAGSMVNDKTLVEGVSLTYKEGTKVYTSTQVGKECQFTTGLAVVITTTYNETRIQPNTKCPEKS | not soluble |
| MMKITDEKAEDVNLSTIKVVKRDGRLVTFDDQKIYDALIKAEQKIHDQVTPLTHQKVQSIVADVNREIAERFTNNVKIYEIQNIVEHTLLSNNEYALAEEYIHYRTQRDFERSKATD | not soluble |
| MMKKIKILSLLVCLIALFTACHDEEDKTNYGSRTVLVYIAGDNSLSRFASEDLNEMIEGMQSVDDNHNNLLVYMDKGSNPKLIRLRKDKDVVVQDVIATYDAQNSVDVDVMKNVFTTAFSHYPADSYGVVFWSHGDGWLPYNNPSTRWWGQDTGNGDNRMNIPDLNEALSVAPHFDFILFDACYMQSVEVVYQLRNRADYFIGSPTEIPGPGAPYEVVVPALFAVNSPAVSIAENYYSVYAKKYNSTGAGISNENWTGGVSISVIKSSELSALAAATRDVLQTAVSMQQSHNIDISSILCYDPLRENNYHDLMGLMQSIQGNSQAFNHYKEMYKNAVIWKNTTDNNYCTYSSGYGKMVSMDGFEGVSTYILRENNSSQEKYYRQFVEWYSAADWDSVDWLEHHHHHH | not soluble |
| MMKKLFLDTHSASGEIKLTDGLLYWFPQFLTPIQADQAFQQMLTHLDWQQKSIRLFGKSVLQPRLIAWYGEKGYRYSGLSLSAQPFPPPLLTLKTQCEQAAQAPFNSVLANLYRDGQDSMGWHQDNEPELGSNPVIASLSLGESRRFLLRHHKDHALQVECELNHGDLLIMAGNTQHFWQHAIPKTRQTKQTRINLTFRNILLEHHHHHH | soluble |
| MMKKYLISLAKDQQRREQFFTQADTADFQVFDAVNTMQQEWDSLAVKYDITQFAQRYQRSVTKGEIGCTLSHLGVYQWIVADPQIGDNDYCLVCEDDALFNQDVQSSLTQLLSQNVHADIVLVGQSKIFGFDDAMLEIEYPTTFAPQMVAIGNSIYRYAYPYKNYYAGTVAYLIKKSTARKLVSITDLPFWLADDFILFEQQFGLDIMVVRPLMAIENPALCSNLETARASTQQALSKKLLKYPFKKWLAIQRNIGLKNDQCGNLEHHHHHH | not soluble |
| MMKLKFYLVYLWYKVLLKLGIKTDEIYYIGGSEALPPPLTKEEEEVLLNKLPKGDQAARSLLIERNLRLVVYIARKFENTGINIEDLISIGTIGLIKAVNTFNPEKKIKLATYASRCIENEILMHLRRNNKNRSEVSFDEPLNIDWDGNELLLSDVLGTDDDIITKDLEATVDRHLLMKALHQLNDREKQIMELRFGLAGGEEKTQKDVADMLGISQSYISRLEKRIIKRLRKEFNKMV | not soluble |
